# Experimental data as given in patent publication US20230159646A1 (IBIO, published 2023).
# T1: CD25 endogenously expressed on SUDHL-1 human lymphoma cell line and on induced human Treg (iTreg) (human, UniProt P01589 22-272)
# T1 construct: whole, on cells; also called CD25 on SUDHL-1 and iTreg; CD25 expressing SUDHL-1
# T1 sequence (looked up): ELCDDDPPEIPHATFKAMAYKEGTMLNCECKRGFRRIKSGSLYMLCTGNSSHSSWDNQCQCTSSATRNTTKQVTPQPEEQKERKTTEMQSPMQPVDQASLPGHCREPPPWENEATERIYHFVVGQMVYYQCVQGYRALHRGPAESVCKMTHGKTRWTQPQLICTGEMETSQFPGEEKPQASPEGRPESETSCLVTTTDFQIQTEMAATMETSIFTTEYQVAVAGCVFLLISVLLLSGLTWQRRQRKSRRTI
# T2: CD25 (as used in the Carterra LSA kinetics; species and construct not stated) (Homo sapiens (Human), UniProt P01589 22-240)
# T2 sequence: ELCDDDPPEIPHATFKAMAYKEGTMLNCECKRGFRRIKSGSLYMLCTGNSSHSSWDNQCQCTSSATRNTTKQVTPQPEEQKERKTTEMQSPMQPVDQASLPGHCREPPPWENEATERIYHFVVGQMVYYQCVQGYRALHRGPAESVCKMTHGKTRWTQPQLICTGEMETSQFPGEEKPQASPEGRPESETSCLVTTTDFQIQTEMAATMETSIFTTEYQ
# T3: cynomolgus CD25 (Sino Biologicals, 90265-C08H) (cynomolgus, UniProt H6WS54 22-213)
# T3 construct: Bought recombinant protein coated on ELISA plates; also called immobilized cynomolgus CD25; cynos monkey CD25
# T3 sequence: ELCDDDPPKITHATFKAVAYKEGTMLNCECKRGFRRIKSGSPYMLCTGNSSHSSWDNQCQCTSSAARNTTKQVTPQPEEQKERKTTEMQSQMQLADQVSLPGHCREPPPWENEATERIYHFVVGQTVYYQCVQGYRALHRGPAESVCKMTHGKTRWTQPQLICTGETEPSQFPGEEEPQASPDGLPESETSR
# T4: mouse CD25 (immobilized, ELISA) (mouse, UniProt P01590 22-236, limits assumed)
# T4 construct: also called immobilized mouse CD25
# T4 sequence (looked up): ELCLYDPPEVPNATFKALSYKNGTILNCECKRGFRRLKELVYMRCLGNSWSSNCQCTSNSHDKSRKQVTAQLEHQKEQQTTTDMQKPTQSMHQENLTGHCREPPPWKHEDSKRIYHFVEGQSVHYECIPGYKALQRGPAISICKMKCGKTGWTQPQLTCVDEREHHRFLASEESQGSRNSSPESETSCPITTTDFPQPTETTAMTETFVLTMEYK
# T5: human CD25 (Sino Biologicals, 10165-H08H) (human, UniProt P01589 22-213)
# T5 construct: Bought recombinant protein coated on ELISA plates; also called immobilized human CD25; IL2RA
# T5 sequence (looked up): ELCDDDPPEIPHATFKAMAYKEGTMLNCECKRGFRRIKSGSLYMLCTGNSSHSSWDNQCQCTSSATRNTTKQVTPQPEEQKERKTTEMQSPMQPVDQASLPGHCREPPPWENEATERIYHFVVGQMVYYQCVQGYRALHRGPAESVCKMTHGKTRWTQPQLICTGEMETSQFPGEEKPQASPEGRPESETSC
# B1: IBIO-101-plant-afuc (SD-889825-PC-A; IBIO-101, c-105 plant Afucosylated) (antibody, human IgG1, kappa, V domains shown)
# VH: QVQLVQSGAEVKKPGASLKISCKGSGYTFTDYAMHWVRQAPGQGLEWIGVISTYSGDAIYAQKFQGRATMTVDTSTSTAYLELSSLRSEDTAVYYCARGVTFDYWGQGTTVTVSS
# VL: DIQMTQSPSSLSASVGDRVTITCRASQDISNYLEWYQQKPGKAPKLLVYNAKTLAEGVPSRFSGSGSGTDFTLTISSLQPEDFGTYYCQHHYDTPYTFGQGTKLEIKR
# modifications: afucosylated glycan (made in C105 dXT/FT plants deficient in fucosylation and xylosylation)
# notes: Signal peptide of the entries is not part of the mature antibody; Human IgG1 constant region, afucosylated; also called RTX-003; hD11
# B2: IBIO-101-CHO-afuc (SD-889825-CG-A; IBIO-101, CHO cells Afucosylated) (antibody, human IgG1, kappa, V domains shown)
# VH: B1 VH
# VL: B1 VL
# modifications: afucosylated glycan (as printed: afucosylated)
# notes: signal peptide of the entries is not part of the mature antibody; Human IgG1 constant region, afucosylated; also called RTX-003; hD11
# B3: IBIO-101-CHO-WT (SD-889825-CW-A; IBIO-101, wild-type CHO cells) (antibody, human IgG1, kappa, V domains shown)
# VH: B1 VH
# VL: B1 VL
# notes: the entries carry the plant extensin signal peptide, which is not part of the mature antibody; Human IgG1 constant region, fucosylated (WT); also called RTX-003; hD11
# B4: IBIO-101-plant-WT (SD-889825-PW-A; IBIO-101, wild-type plant) (antibody, human IgG1, kappa, V domains shown)
# VH: B1 VH
# VL: B1 VL
# notes: Signal peptide of the entries is not part of the mature antibody; Made in wild-type Nicotiana benthamiana; human IgG1 constant region; also called RTX-003; hD11
# Columns and labels:
# [1] = biological target: T1, CD25 endogenously expressed on SUDHL-1 …; assay: flow cytometry, SUDHL-1 cells; average of n>=6, SD 38.12
# Protocol: SUDHL-1 and iTreg Cell Binding Assay.
# (§1) The plates were centrifuged and then kept on ice for the remaining essay steps after aspiration of the supernatant. Following supernatant aspiration, the anti-CD25 or control antibodies in the assay buffer were added to the cells at increasing concentrations (0.64 - 10,000 ng/mL) for 20 minutes on ice. After incubation, the plates were centrifuged and the supernatant was aspirated, then the cells were washed once with the assay buffer followed by centrifugation and supernatant aspiration. […] After incubation, the plates were centrifuged and the supernatant was aspirated, then the cells were washed once with the assay buffer followed by centrifugation and supernatant aspiration. […] Cell binding was analyzed on a Miltenyi MACSQuant 16 flow cytometer. Flow cytometry data were analyzed with the FlowJo flow cytometry analysis software. For making graphs and calculation of the EC₅₀ values GraphPad Prism 9.3.0 was used.
# [2] = biological target: T2, CD25 (as used in the Carterra LSA …); assay: Carterra LSA kinetics
# [3] = biological target: T2, CD25 (as used in the Carterra LSA …); assay: Carterra LSA kinetics; KD SD 1.27 nM
# [4] = biological target: T1, CD25 endogenously expressed on SUDHL-1 …; assay: flow cytometry, human iTreg cells; average of n=3, SD 83.94
# Protocol: SUDHL-1 and iTreg Cell Binding Assay.
# as §1
# [5] = biological target: T3, cynomolgus CD25 (Sino Biologicals, …); assay: ELISA, immobilized cynomolgus CD25; average of n>=3, SD 9.8
# Protocol: (§2) CD25 Binding ELISA. […] The next day, plates were washed three times with wash buffer [1X PBS with 0.1% Tween-20 (Teknova, P0207)] followed by the addition of blocking buffer [1X PBS, 1% BSA (Teknova, B0101)] for 1 hour at room temperature. After blocking, plates were washed three times with wash buffer followed by the addition of the anti-CD25 or control antibodies in wash buffer at increasing concentrations (0.0006 - 10 µg/mL) for 1 hour at room temperature. After incubation, plates were washed three times with wash buffer followed by the addition of goat anti-human IgG-HRP secondary antibody (Biorad, STAR126P) at 1:2500 dilution in wash buffer for 1 hour at room temperature. […] After TMB substrate incubation, ELISA stop solution (Thermo Fisher, SS04) was added to the plate at equal volume to the TMB substrate and the absorbance was read at 450 nm. The data was plotted using GraphPad Prism 9.3.0 software and the EC₅₀ values were calculated by the software.
# [6] = biological target: T4, mouse CD25 (immobilized, ELISA); assay: ELISA, immobilized mouse CD25 (N/A in the 14th table, row 10, column 6)
# [7] = biological target: T5, human CD25 (Sino Biologicals, …); assay: ELISA, immobilized human CD25; average of n>=3, SD 3.2
# Protocol: as §2
# [8] = biological target: T2, CD25 (as used in the Carterra LSA …); assay: Carterra LSA kinetics; KD SD 1.03 nM
# [9] = biological target: T1, CD25 endogenously expressed on SUDHL-1 …; assay: flow cytometry, human iTreg cells; average of n=3, SD 40.50
# Protocol: SUDHL-1 and iTreg Cell Binding Assay.
# as §1
# [10] = biological target: T3, cynomolgus CD25 (Sino Biologicals, …); assay: ELISA, immobilized cynomolgus CD25; average of n>=3, SD 12.3
# Protocol: as §2
# [11] = biological target: T4, mouse CD25 (immobilized, ELISA); assay: ELISA, immobilized mouse CD25 (N/A in the 14th table, row 8, column 6)
# [12] = biological target: T1, CD25 endogenously expressed on SUDHL-1 …; assay: flow cytometry, SUDHL-1 cells; average of n>=6, SD 39.9
# Protocol: SUDHL-1 and iTreg Cell Binding Assay.
# as §1
# [13] = biological target: T5, human CD25 (Sino Biologicals, …); assay: ELISA, immobilized human CD25; average of n>=3, SD 2.5
# Protocol: as §2
# [14] = biological target: T4, mouse CD25 (immobilized, ELISA); assay: ELISA, immobilized mouse CD25 (N/A in the 14th table, row 7, column 6)
# [15] = biological target: T4, mouse CD25 (immobilized, ELISA); assay: ELISA, immobilized mouse CD25 (N/A in the 14th table, row 9, column 6)
binder,measurement,setting,value
B1,EC50,[1],0.123 mg/L
same,koff,[2],0.00207 s⁻¹
same,kon,[2],492000 M⁻¹ s⁻¹
same,Kd,[3],4.27 nM
same,EC50,[4],0.218 mg/L
same,EC50,[5],0.0424 mg/L
same,binding result,[6],no binding (tested: 10 µg/mL)
same,EC50,[7],0.0174 mg/L
B2,koff,[2],0.00119 s⁻¹
same,kon,[2],499000 M⁻¹ s⁻¹
same,Kd,[8],3.9 nM
same,EC50,[9],0.219 mg/L
same,EC50,[10],0.0431 mg/L
same,binding result,[11],no binding (tested: 10 µg/mL)
same,EC50,[12],0.126 mg/L
same,EC50,[13],0.0156 mg/L
B3,binding result,[14],no binding (tested: 10 µg/mL)
B4,binding result,[15],no binding (tested: 10 µg/mL)
